# Experimental data reported in IntAct's records for PubMed 15916946.
# B1: Serine/threonine-protein kinase tousled-like 1 (Caenorhabditis elegans), P34314 (parent)
# chain: MSMLSMDGIVAGGGSSSGGGERSFVLEQKMFNTGPQNKALPTVQSSGSSSNHAPIVGESPLGTVSSTMATGDTGRVGNVTYMSSGMLGATQFMPQNSSHPSTSVMMQQVPPQNGGATRSSPTEMQQCMQAMSEDSIEMRDYNSGVHHMHPHQMQMQQQQQHHQQQYNMSYHNHQQQMQQMHYHQQQQQYQQQQAQHHQMYAPQIQQQQQQPQQQSQQQSAQQPQQSSAALQHVNESSNLSSAGSISDREPEQHGGTPQRPTAPQSSTATDKKTRKRRKAGPTEDQATPKQERKITEFMKVGGEVASGNSVARCLLTEYHQNQGSPKRQPAVQQNGSNSYDSQQQQPQMNQHEMQNSYWGVATPSLGVNNRGTPTPTQQQHYSSDSNSNSNQSPPGQGNQSGRMVRTIDEETQTDSSLSQANPQNADEVAKMNRIIEDHRRQIEELNSKNSLERRKNEASKETIKRLLIDKNQIERKALRDKTAADSPRIGCFKTTRTGDSFRDQWVDGWAFAEMDKKTEQINAERNEIASASALLKKRKPLGIGKEPKRPQAVNSQNDSNGMQPSTSSNTNGDDAIFRRPEEPKEIQYQEYIELDEIYKLRREHLRKEETDLSMEKERLEKEKQHHVRELKRASNESASQFNDHRLLHKRYLMLNLLGKGGFSEVWKAFDIEENRYVACKIHHVNKDWKEEKKANYVKHAMREKDIHKSLDHCRIVKQYDLLTIDNHSFCTVLEYVPGNDLDFYLKQNRSISEKEARSIIMQVVSALVYLNEKSTPIIHYDLKPANILLESGNTSGAIKITDFGLSKIMEGESDDHDLGIELTSQFAGTYWYLPPETFIVPPPKITCKVDVWSIGVIFYQCIYGKKPFGNDLTQQKILEYNTIINAREVSFPSKPQVSSAAQDFIRRCLQYRKEDRADVFELAKHELFRPRGAIRASVAGSLLLVIITLCQHSNRSEDRLCVSNV
# partner: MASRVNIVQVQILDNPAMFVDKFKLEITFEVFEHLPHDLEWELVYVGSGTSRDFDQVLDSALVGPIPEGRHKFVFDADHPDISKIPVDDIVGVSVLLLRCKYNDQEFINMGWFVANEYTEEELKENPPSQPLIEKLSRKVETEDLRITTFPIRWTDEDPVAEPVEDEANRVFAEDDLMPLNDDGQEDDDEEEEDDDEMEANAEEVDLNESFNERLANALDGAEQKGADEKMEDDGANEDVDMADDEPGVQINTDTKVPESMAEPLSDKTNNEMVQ
# Variants of: B1
# Conditions: with asf1_caeel unc-85, Q19326
row,Variant,effect of a mutation on the interaction
1,S634E,increasing interaction
2,S634A,increasing interaction
